Data from US11629193B2, “EGFR binding molecules” (F-STAR BETA LIMITED, priority 2016, dated 2023).

Experiments:
LL2.ova = experiment: In vivo skin toxicity and tumour growth, syngeneic mouse tumour model LL2.ova; conditions: 250 μg intraperitoneally on days 3, 6 and 10; eight mice each
Procedure: Skin toxicity has been observed with known anti-EGFR therapies, resulting in skin rash, lesions etc. In order to determine the toxicity of anti-EGFR Fcabs and mAb^2 containing anti-EGFR Fcs, an in vivo study was conducted. […] The tumour cells (5×10^5 cells) were implanted subcutaneously in the flank of female C57B16 (Charles River) mice aged 6-8 weeks and the mice were randomly assigned to four cohorts of eight mice each. […] The tumour volumes were measured with electronic callipers at days 10, 12, 14, 17, 19, 20 and 21. At day 16 pictures of the mice were taken to illustrate the observed skin toxicity.

NCI-H1975 cells = experiment: Cell proliferation, NCI-H1975 cells stimulated with HGF; assay type: cell-based; conditions: NCI-H1975, antibodies 300 nM with and without erlotinib (2 μM)
Procedure: NCI-H1975 (ATCC CRL-5908) is a non-small cell lung cancer (NSCLC) cell line which expresses constitutively active mutated EGFR L858R and EGFR T790M (Kobayashi et al 2005). These mutations are acquired secondary mutations known to confer resistance to EGFR tyrosine kinase inhibitor (TKI) therapies in NSCLC patients. The NCI-H1975 cell line also expresses c-Met. […] The same method was used as in the U87MG assay described above, except that the NCI-H1975 cells were stimulated with HGF. One day before the treatment, the medium used was changed from containing 10% FBS to containing no serum. Treatments were added at various concentrations (0.003-300 nM) in the presence of 80 ng/ml HGF and incubated for 3 days at 37° C.

[1] = test system: phosphorylation of MAPK and Akt; experiment: Western blot of downstream signalling in U87MG cells; assay type: cell-based, human; conditions: 200 nM (200+200 nM for combination), HGF and EGF present
Procedure: (§1) Overnight cultures of the glioblastoma cell line U87MG (ATCC HTB-14) were moved from a medium with 10% FBS to a low serum medium with 0.1% FBS to optimise sensitivity to ligand stimulation. The cells were incubated overnight. […] Controls without antibody treatment were included, with and without growth factor stimulation. The treated cells were lysed using lysis buffer (10 mM Tris® pH7.5, 150 mM NaCl, 1 mM EDTA) comprising 1:100 protease inhibitor cocktail (Calbiochem, 539131) and 1:100 Phosphatase inhibitor cocktail (Calbiochem, 524625) and the lysates collected for analysis.
(§2) Lysate samples were subjected to standard western blotting analysis using a 4-12% Bis-Tris® protein gel (ThermoFisher, NP0322BOX) and transferred to a nitrocellulose membrane (ThermoFisher, IB301001). The membrane was blocked with 5% Marvel milk/TBST and then probed for phospho-c-Met using a rabbit monoclonal antibody specific for c-Met phosphorylated at Tyr1234/1235 (Cell Signaling, 3077), phospho-EGFR using a mouse monoclonal antibody specific for EGFR phosphorylated at Tyr1068 (Cell Signaling, 2236), phospho-MAPK using a mouse monoclonal antibody specific for p44/42 MAPK (ERK1/2) phosphorylated at Thr202/Tyr204 (Cell Signaling, 9106), and phospho-Akt using a rabbit monoclonal antibody specific for Akt phosphorylated at Ser473 (Cell Signaling, 9271). […]

[2] = test system: phosphorylation of c-Met and EGFR; experiment: Western blot of receptor phosphorylation in U87MG cells; assay type: cell-based, human; conditions: 200 nM, 20 min
Procedure: as §1, §2

HGF = HGF (Homo sapiens, UniProt P14210); experiment: Free HGF in culture media of U87MG cells (HGF Human ELISA Kit); assay type: cell-based; design: examined in U87MG cells that secrete HGF; endogenous in cells; host or cells: U87MG; conditions: 30 nM, 4 days, compared to controls
Procedure: It was hypothesised that internalisation of HGF by anti-EGFR/HGF mAb^2 leads to reduced level of HGF in the system. To test this hypothesis, the change in level of free HGF caused by incubation with anti-EGFR/HGF mAb^2 was examined in U87MG cells that secrete HGF. U87MG cultures were incubated with different treatments at 30 nM for 4 days at 37° C. […] On day 4, the media from each cell culture were collected for HGF level analysis. HGF concentration was measured using HGF Human ELISA Kit (ThermoFisher, KAC2211) following the manufacturer's protocol. Using monoclonal anti-HGF antibodies, the free HGF in media was detected (free HGF was defined as HGF in the media which was bound by detection antibodies).

Chain of HGF (P14210 32-728): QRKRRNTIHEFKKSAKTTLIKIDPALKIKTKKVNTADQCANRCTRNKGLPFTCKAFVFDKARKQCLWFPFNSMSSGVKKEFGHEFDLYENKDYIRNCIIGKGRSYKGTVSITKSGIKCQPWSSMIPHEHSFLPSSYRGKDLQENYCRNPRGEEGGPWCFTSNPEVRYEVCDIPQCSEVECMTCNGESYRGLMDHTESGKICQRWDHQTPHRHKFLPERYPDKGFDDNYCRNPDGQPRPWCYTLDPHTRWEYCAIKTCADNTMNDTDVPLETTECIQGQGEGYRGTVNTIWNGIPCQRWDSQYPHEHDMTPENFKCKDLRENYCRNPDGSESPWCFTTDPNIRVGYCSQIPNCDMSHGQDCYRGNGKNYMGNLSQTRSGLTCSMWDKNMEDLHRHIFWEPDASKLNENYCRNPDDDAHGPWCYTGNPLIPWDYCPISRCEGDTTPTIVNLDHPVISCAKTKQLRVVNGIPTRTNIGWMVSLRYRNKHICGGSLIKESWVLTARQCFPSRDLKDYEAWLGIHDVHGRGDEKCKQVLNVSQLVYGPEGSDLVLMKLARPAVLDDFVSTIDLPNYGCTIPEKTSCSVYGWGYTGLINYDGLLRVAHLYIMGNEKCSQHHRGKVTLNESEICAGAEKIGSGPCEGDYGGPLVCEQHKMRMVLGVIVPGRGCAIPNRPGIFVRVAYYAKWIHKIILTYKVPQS

9D9m2a: anti-mouse CTLA4 antibody: 9D9 VH in mouse IgG2a backbone, heavy chain SEQ ID NO: 52, light chain SEQ ID NO: 50 [Fcab 9D9m2a, reference compound]
Mice showing hair loss (LL2.ova): 0/8
Skin lesions (LL2.ova): 0/8

C#Cc1cccc(Nc2ncnc3cc(OCCOC)c(OCCOC)cc23)c1 [erlotinib, reference compound]
reduction of cell proliferation induced by HGF (NCI-H1975 cells): No effect

rilotumumab [reference compound]
block of phosphorylation of MAPK and Akt [1]: unable to block the phosphorylation of MAPK and Akt
block of phosphorylation of c-Met by HGF [2]: able to block the phosphorylation of c-Met by HGF
concentration of free HGF in the media (HGF): significant decrease in the concentration of free HGF in the media
